Measured values as given in PMC11077047, “Activation of zinc uptake regulator by zinc binding to three regulatory sites”.
Substitutions are numbered along the chain they refer to.

Columns and labels:
[1] = biological target: T1, Zur (ScZur) wild type (Streptomyces coelicolor) (UniProt Q9L2H5); test: DNase I footprinting; details: ITC: 20 mM HEPES pH 7.8, 150 mM NaCl, 0.5 mM TCEP, 25 C. EMSA: 20 mM Tris-HCl pH 7.8, 150 mM NaCl, 5 mM DTT, 0.1 mg/ml BSA, 5% glycerol, 0.1 ug poly(dI-dC) per …
T1 sequence: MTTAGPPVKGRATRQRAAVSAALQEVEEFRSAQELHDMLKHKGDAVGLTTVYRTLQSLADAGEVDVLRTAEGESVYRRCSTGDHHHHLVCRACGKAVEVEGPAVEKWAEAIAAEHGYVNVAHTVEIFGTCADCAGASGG

[2] = biological target: T2, Zur H36A H36A (Streptomyces coelicolor) (UniProt Q9L2H5); test: DNase I footprinting; details: ITC: 20 mM HEPES pH 7.8, 150 mM NaCl, 0.5 mM TCEP, 25 C. EMSA: 20 mM Tris-HCl pH 7.8, 150 mM NaCl, 5 mM DTT, 0.1 mg/ml BSA, 5% glycerol, 0.1 ug poly(dI-dC) per …
T2 sequence: T1 sequence with H36A

Zur H36A [3] = biological target: T3, Zur H36A (Streptomyces coelicolor, UniProt Q9L2H5 1-139, H36A); test: ITC; 4.0 eq Zn2+ per Zur dimer; N=2.0 dimers per DNA; K=3.3e5 M-1; ITC: 20 mM HEPES pH 7.8, 150 mM NaCl, 0.5 mM TCEP, 25 C. EMSA: 20 mM Tris-HCl pH 7.8, 150 mM NaCl, 5 mM DTT, 0.1 mg/ml BSA, 5% glycerol, 0.1 ug poly(dI-dC) per; details: protein: recombinant; chain copies: 2; label: 6-FAM in EMSA; blunt
T3 sequence: T1 sequence with H36A

Zur (ScZur) wild type [4] = biological target: T4, Zur (ScZur) wild type (Streptomyces coelicolor, UniProt Q9L2H5 1-139); test: ITC; 4.0 eq Zn2+ per Zur dimer; N=2.1 dimers per DNA; K=8.7e5 M-1; ITC: 20 mM HEPES pH 7.8, 150 mM NaCl, 0.5 mM TCEP, 25 C. EMSA: 20 mM Tris-HCl pH 7.8, 150 mM NaCl, 5 mM DTT, 0.1 mg/ml BSA, 5% glycerol, 0.1 ug poly(dI-dC) per; details: protein: recombinant; chain copies: 2; label: 6-FAM in EMSA; blunt
T4 sequence: T1 sequence

Zur (ScZur) wild type [5] = biological target: T4, Zur (ScZur) wild type; test: ITC; 4.0 eq Zn2+ per Zur dimer; N=3.1 dimers per DNA; K=1.8e6 M-1; ITC: 20 mM HEPES pH 7.8, 150 mM NaCl, 0.5 mM TCEP, 25 C. EMSA: 20 mM Tris-HCl pH 7.8, 150 mM NaCl, 5 mM DTT, 0.1 mg/ml BSA, 5% glycerol, 0.1 ug poly(dI-dC) per; details: protein: recombinant; chain copies: 2; label: 6-FAM in EMSA; blunt
Zur H36A [6] = biological target: T3, Zur H36A; test: ITC; 4.0 eq Zn2+ per Zur dimer; N=3.1 dimers per DNA; K=2.6e5 M-1; ITC: 20 mM HEPES pH 7.8, 150 mM NaCl, 0.5 mM TCEP, 25 C. EMSA: 20 mM Tris-HCl pH 7.8, 150 mM NaCl, 5 mM DTT, 0.1 mg/ml BSA, 5% glycerol, 0.1 ug poly(dI-dC) per; details: protein: recombinant; chain copies: 2; label: 6-FAM in EMSA; blunt
Zur (ScZur) wild type [7] = biological target: T4, Zur (ScZur) wild type; test: EMSA; 400 nM Zur, 0-5 uM zinc; saturating state switched (tetramer); ITC: 20 mM HEPES pH 7.8, 150 mM NaCl, 0.5 mM TCEP, 25 C. EMSA: 20 mM Tris-HCl pH 7.8, 150 mM NaCl, 5 mM DTT, 0.1 mg/ml BSA, 5% glycerol, 0.1 ug poly(dI-dC) per; details: protein: recombinant; chain copies: 2; label: 6-FAM; blunt
Zur (ScZur) wild type [8] = biological target: T4, Zur (ScZur) wild type; test: EMSA; 400 nM Zur, 0-5 uM zinc; saturating state switched (hexamer); ITC: 20 mM HEPES pH 7.8, 150 mM NaCl, 0.5 mM TCEP, 25 C. EMSA: 20 mM Tris-HCl pH 7.8, 150 mM NaCl, 5 mM DTT, 0.1 mg/ml BSA, 5% glycerol, 0.1 ug poly(dI-dC) per; details: protein: recombinant; chain copies: 2; label: 6-FAM; blunt

**Q.** Which results are given for “CTCCTCGTGTGTACCGGCGTCCGGCGACCCGGCGCCCGGATGCCAGTCAACTACGGGTAGGGGGTATCGGGCAACGCGGCACTGAACACCGTTGTCATGTGCCTTGACCTGCGGAAACGTTTCGCAGGTCAGAGTGTTGCGAGGATGCGGAGGGTGCGGCTTCCGCCGTCAGGGGGACCGGTCCGACGGGGCTCGTCCTGACCCTGTGCGAACAACGGCGGACACTGTGCGATGTCCGCGATGCCCGGTCTGGGGGCGCGGTTTGTC (double strand) [zitB promoter 267 bp footprinting probe]”?
**A.** binding [1]: binds; binding [2]: binds more weakly

B1: znuA 33 bp (zurbox site 1) (dsDNA)
DNA 1: TCCGCTTGTTGACAACGGTTTCCATATTTGTTG
DNA 2: CAACAAATATGGAAACCGTTGTCAACAAGCGGA
**Q.** Which results are given for B1?
**A.** Kd (Zur H36A [3]): 3 ± 0.9 µM; Kd (Zur (ScZur) wild type [4]): 1.2 ± 0.2 µM

B2: zitB 33 bp (dsDNA)
DNA 1: CAAGGCACATGACAACGGTGTTCAGTGCCGCGT
DNA 2: ACGCGGCACTGAACACCGTTGTCATGTGCCTTG
**Q.** How did the Kd (Zur (ScZur) wild type [5]) turn out when B2 was run?
**A.** 0.6 ± 0.1 µM

**Q.** What about the Kd (Zur H36A [6]) of the same molecule?
**A.** 3.9 ± 1 µM

B3: zitB zurbox with znuA flanks (4 nt each) (dsDNA)
DNA 1: CAAGGTTGTTGACAACGGTGTTCATATTCGCGT
DNA 2: ACGCGAATATGAACACCGTTGTCAACAACCTTG
**Q.** Does B3 bind (Zur (ScZur) wild type [7])?
**A.** binds

B4: znuA zurbox with zitB flanks (4 nt each) (dsDNA)
DNA 1: TCCGCCACATGACAACGGTTTCCAGTGCTGTTG
DNA 2: CAACAGCACTGGAAACCGTTGTCATGTGGCGGA
**Q.** Does B4 bind (Zur (ScZur) wild type [8])?
**A.** binds
